Measurements from the RNAGym collection of RNA variant scans (doi:10.1073/pnas.2313332121).
Fewer inactive variants are shown than the library holds.

B1: TPR 5TU (parent)
chain: GGAUCUUCUCGAUCUAACAAAAAAGACAAAUCUGCCACAAAGCUUGAGAGCAUCUUCGGAUGCAGAGGCGGCAGCCUUCGGUGGCGCGAUAGCGCCAACGUUCUCAACUAUGACACGCAAAACGCGUGCUCCGUUGAAUGGAGUUUAUCAUG

Variants of: B1
Test: polymerase ribozyme fitness, log enrichment relative to wild type (log ratio); higher = more active; in vitro selection for triplet polymerase activity
Summary of the method: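 After PCR construction and transcription, each subunit's mutant library from a heterodimeric triplet polymerase ribozyme was annealed with a biotinylated primer, the partner subunit and triplets. Incubation was frozen, at −7 °C, and extended constructs were gel-excised, bound to streptavidin beads and amplified by RT-PCR, in one selection round done in triplicate. Fitness is the logarithm of a genotype's enrichment divided by that of the wild type, from inverse-variance-weighted replicate averages of Illumina-sequenced inputs and outputs. The base of the logarithm is 2, and genotypes needed ≥10 input reads and ≥1 read per output.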

Question: Which “polymerase ribozyme fitness (log ratio)” value does the source give for GGAUCUUCUCGAUCAAACAAAAAAGACAAAUCUGCUACAAAGCUUGAGAGCAUCUUCGGAUGCAGAGGCGGCAGCCUUCGGUGGCGUGAUAGCGCCAACGUUCUCAACUAUGACACGCAAAACUCGUGCUCCGUUGCAUGGAGUUUAUCAUG [U15A C36U C87U G124U A137C] here?
Answer: -4.03

Question: For GGAUCUUCUCGAUCAAACAAAAAAGACAGAUCUGCCACAAAGCUUGAGAGCAUCUUCGGAUGCAGAGGCGGCAGCCUACGGUGGCGCAAUAGCGCCAACGUUCUCAACUAUGACACGCAAAACGCUUGCUCCGUGGAAUGGAGUUUAGCAUG [U15A A29G U78A G88A G126U U135G U148G], which “polymerase ribozyme fitness (log ratio)” value is on record?
Answer: ≤ -4.2

Question: Which “polymerase ribozyme fitness (log ratio)” value does the source give for GGAUCUUCUCGAUCAAACAAAAAAGACAAAUCUGCCACAAAGCUUGAGAGCAUUUUCGGAUGCAGAGGCGGCAGCCUUCGGUGGCGCGAUAACGCCAACGUUCUCAACUAUGACACGCAAAACGCGUGCUCCGUUGAAUGGAGUUUAUCAUG [U15A C54U G92A] here?
Answer: -3

Question: For GGAUCUUCUCGAUCAAACAAAAAAGACACAUCUGCCAUAAAGCUUGAGAGCAUCUUCGGAUGCAGAGGCGGCAGCCUUCGGUGGCGCGAUAGCGCCAACGUUCUCAACUAUGACACGCUAAACGCAUGCUCCGUUGAAUGGAGAUUAUGAUG [U15A A29C C38U A119U G126A U144A C149G], which “polymerase ribozyme fitness (log ratio)” value is on record?
Answer: ≤ -4.2

Question: For GGAUCUUCUCGAUCAAACUAAAAAGACAAAUCUGCCACAAAGCUUGAGAGCAUCUUGGGAUGCAGAGGCGGCAGCCUUCGGUGGCACGAUAGCGCCAACGUUCUCAACUAUGACACGCAAAACGCGUGCUCCGUUGAAUGGAGUUUAUCAUG [U15A A19U C57G G86A], which “polymerase ribozyme fitness (log ratio)” value is on record?
Answer: -1.7

Question: Which “polymerase ribozyme fitness (log ratio)” value does the source give for GGAUCUUCUCGAUCAACCAAAAUAGACAAAUCUGCCACAAAGCUUGAGAGCAUCAUCGGAUGCAGAGGCGGCAGCCUUCGGUGACGCGAUAACACCAACGUGCUCAACUAUGACAGGCAAAACGCGUGCUCCGUUGAAUGGAGUUUAUCAUG [U15A A17C A23U U55A G84A G92A G94A U102G C116G] here?
Answer: ≤ -4.2

Question: For GGAUCUUCUCGAUCAACCAAAAAAGACAAAUGUGCCACAAAGCUUGAGAGCAUCUUCGGGUGCAGAGGCGGCAGCCUUCGGUGGCGCGAUAGCGCCAAUGUUCUCAACUAUGACAUGCAAAACGCGUGCUCCGUUGAAUGGAGUUUAUCAUG [U15A A17C C32G A60G C99U C116U], which “polymerase ribozyme fitness (log ratio)” value is on record?
Answer: ≤ -4.2

Question: With GGAUCUUCUCGAUCAAACAAAAAAGACAAAUCUGCCACAAAGCUUGAGAGCAUCUUCGGAUGCAGAGGCGGCAGCCUUCGGUGGAGCGAUAGCGCCAACGUUCUCAACUAUGACACGCAAAACGCGUGCUCCGUUGAAUGGAGUUUAUCAUG [U15A C85A] as the variant, how does the “polymerase ribozyme fitness (log ratio)” value read?
Answer: -1.53

Question: For GGAUCUUCUCGAUCAAACAAAAAAGACAAAUCUGCCACAAAGCUUGAGAGCAUCUUUGGAUGAAGAGACGGCAGCCUUCGGUGGCGUGAUAGCGCCAACGUUCUCAACUAUGACACGCAAAUCGCGUGCUCCGUUGAAUGGAGUUUAUCAUG [U15A C57U C63A G68A C87U A122U], which “polymerase ribozyme fitness (log ratio)” value is on record?
Answer: ≤ -4.2

Question: For GGAUCUUCUCGAUCAAACAAAAAAGACAAAUCUGCCACAAAGCUUGAGAGCAUCUUCGGGUGCAGAGGCGGCAGCCUUCUGUGGCGCGAUAGCGCUAACGUUCUCAACUAUGACACGCAAACCGCGUGCUCCGUUGAAUGGAGUUUAUCAUG [U15A A60G G80U C96U A122C], which “polymerase ribozyme fitness (log ratio)” value is on record?
Answer: -1.4

Question: For GGAUCUUCUCGAUCAAACAAAAAAGACAAAUCUGCCACAAAGCUUGGGAGCAUCUAUGGAUGCAGAGGCGGCAGCCUUCGGUGGCGCGAUAGCGCCAACGUUCUCAACUAUGACACGCAAAACCCGUGCUCCGUUGAAUGGAGUUUAUUAUG [U15A A47G U56A C57U G124C C149U], which “polymerase ribozyme fitness (log ratio)” value is on record?
Answer: -2.48

Question: For GGAUCUUCUCGAUCAAACAGAAAAGACAAAUCUGCCACAAAGCAUGAGAGCAUCUUCGGAUGCAGAGGCGGCAGCCUUCGGUGGCGCGAUAGCGCCAACGUUCUCAACUAUGACACGCAACACGCGUGCUCCGUUUAAUGGAGUUUAUCAUG [U15A A20G U44A A121C G136U], which “polymerase ribozyme fitness (log ratio)” value is on record?
Answer: ≤ -4.2

Question: Which “polymerase ribozyme fitness (log ratio)” value does the source give for GGAUCUUCUCGAUCAAACAAAAAAGACAAAUCUGCCACCAAGCUUGAGAGCAUCUUCGGAUGCAGAGGCGGCAGCCUUCGGUGGCGCGAUAGCGCCAACGUUCUCAACUAUGACACGCAAAAUGCGUGCUCCGUUGCAUGGAGUUUAUCACG [U15A A39C C123U A137C U151C] here?
Answer: ≤ -4.2

Question: Which “polymerase ribozyme fitness (log ratio)” value does the source give for GGAUCUUCUCGAUCAAACAAAAAAGACAAAUCUGCCACAAAGCUUGAGAGCAUCUUCGGAUGCAGAGGCGGCCGCCUUCGGUGGCGCGAUAGCACCAACGUUCUCAACUAUGACACGCAAAACGCGUGCUCCGUUGAAUGGAGUUUAUCAUG [U15A A73C G94A] here?
Answer: -3.39

Question: With GGAUCUUCUCGAUCAAACAAGAAAGACAAAUCUGCGACAAAGCUUGAGAGCAUCUUCGGCUGCAGAGGCGGCAGCCUUCGGUGGCGCGAUAGCGCAAACGUUCUCAACUAUGACACGCAAAACGCGUGCUCCGUUGAAUGGAGUUUCUCAUG [U15A A21G C36G A60C C96A A147C] as the variant, how does the “polymerase ribozyme fitness (log ratio)” value read?
Answer: ≤ -4.2

Question: With GGAUCUUCUCGAUCAAACCAAAAAGACAAAUCUGCCACAAAGCUUGAGAGCGUCUUCGGAUGCAGAGGCGGCAGCCUUCGGUAGCGCGAUAGCGCCAACGUUGUCAACUAUGACACGCAAAACGCGUGCUCCGUUGAAUGGAGUUUAUCAUG [U15A A19C A52G G83A C103G] as the variant, how does the “polymerase ribozyme fitness (log ratio)” value read?
Answer: -3.83

Question: For GGAUCUUCUCGAUCAAACAAAGAAGACAAAUCUGCAACAAAGCUUGAGAGCAUCUUCGGAUGCAGAGGCGGUAGCCUUCGGUGGUGCGAUAGCGCCAACGUUCUCAACUAUGACACGCAAAACGCGUGCUCUGUUGAAUGGAGUUUAUCAUG [U15A A22G C36A C72U C85U C132U], which “polymerase ribozyme fitness (log ratio)” value is on record?
Answer: ≤ -4.2

Question: For GGAUCUUCUCGAUCAAACAACAAAGACAAAUCUGCCACAAAGCUUGAGAGCAUCUUCGGAUGCAGAGGCGGCGGCCUUCGGUGGCGCGAUAGCGUCAACGUUCUCAACUAUGACACGCAAAACGCGUGCUCCGUGGAGCGGAGUUUAUCAUG [U15A A21C A73G C95U U135G A138G U139C], which “polymerase ribozyme fitness (log ratio)” value is on record?
Answer: ≤ -4.2

Question: For GGAUCUUCUCGAUCAAACAAAAAAGACAAAUAUGCCACAAAGCUUGAGAGCAUCUGCUGAUGCAGAGGCGGCAGCCUUCGGUGUCGCGAUAGCGCCAACGUUCUCAAUUAUGACACGCAAAACGCGUGCUCCGUUGAAGGGAGUUUAUCAUG [U15A C32A U56G G58U G84U C108U U139G], which “polymerase ribozyme fitness (log ratio)” value is on record?
Answer: ≤ -4.2
